The assay deals with T1, VC2.2.2 VH-myc (human).
T1 construct: as the VH of m13 (VC2.2.2), from Glu1 to Ser113; Chothia numbering; also called anti-VEGF-C VC2.2.2 VH; single VH-domain of VC2.2.2; source: E. coli (pHEN1), IPTG-induced, bacterial supernatant (ELISA); protein-A purified (SEC); not shown: myc, C-terminal, kept
Description: ELISA; bacterial supernatant of IPTG-induced cultures expressing VH-myc on ΔNΔC-VEGF-C or alpha-2-macroglobulin; detection with anti-myc and anti-mouse HRP or with protein-A-HRP. The conditions noted are these: one partner purified.

B1: ΔNΔC-VEGF-C (variant not stated for the experiment) (ligand, human, UniProt P49767 112-227, looked up)
chain: AHYNTEILKSIDNEWRKTQCMPREVCIDVGKEFGVATNTFFKPPCVSVYRCGGCCNSEGLQCMNTSTSYLSKTLFEITVPLSQGPKPVTISFANHTSCRCMSKLDVYRQVHSIIRR
notes: fully processed ΔNΔC form of human VEGF-C; also called fully processed human VEGF-C
For B1, the binding result was “binds”.

The values above are taken from paper PMC2914788, “Phage-Derived Fully Human Monoclonal Antibody Fragments to Human Vascular Endothelial Growth Factor-C Block Its Interaction with VEGF Receptor-2 and 3” (PLoS ONE, 2010).
